Laboratory results from publication PMC6833008 (Molecules, 2019).
Several values for one entry are separate records, joined by “and”; a condition that tells them apart may be missing. Identical values can stand only once. Like-named read-outs stand apart in the source and are kept apart here. One block for each molecule: values may come before it. Ends that are not written are not given here.

Experiments:
[1] = biological target: T1, Recombinant human PD-1 protein (Homo sapiens, UniProt Q15116); assay: SPR binding of peptides or PD-L1 to immobilized PD-1 (Biacore X100)
T1 construct: purchased Abcam (Cambridge, UK)
Experimental: Peptides of lyophilized powder were dissolved in sterile milli-Q H2O to a stock concentration of 1 mM for use in surface plasmon resonance (SPR) analysis. […] All synthetic peptides and proteins were equally packaged to avoid repeated freeze–thaw cycles.
The HBS-EP buffer (10×) was diluted 10-fold with sterile deionized water, filtered through a 0.22-μm membrane filter, and degassed immediately before the experiment as running buffer with a flow rate of 30 μL/min for the instrument system. The purified active PD-1 was diluted by 10 mM sodium acetate solution at pH 4.5, resulting in a protein concentration of 50 μg/mL. Coupling conditions were determined by protein isoelectric points and previous reports. The diluted protein was immobilized on the surface of a CM5 sensor chip via the primary amine group, employing a standard Amine Coupling Kit, and the target immobilization level was 5000 response units (RUs). The flow cell 1 […] any modification was used as a reference to correct the system error. The RU values were collected, and all the binding affinity data was calculated by kinetic models (1:1 interaction) within Biacore X100 Evaluation Software.
Each concentration was injected into the channel for 120 and 150 s for dissociation. Then, 10 mM glycine 3.0 or glycine 2.5 was utilized to regenerate the sensor chip surface. The equilibrium dissociation constant (KD) was calculated to evaluate the ability of peptides to interact with PD-1.

[2] = biological target: T2, Recombinant human PD-1 protein (programmed cell death protein 1) (human, UniProt Q15116 25-170); assay: SPR; Biacore X100, 25 °C; PD-1 amine-coupled to a CM5 chip (target 5000 RU); peptide as analyte in HBS-EP buffer pH 7.4 (2-64 μM WANG-003, 1-16 μM WANG-004, 1.5625-100 μM WANG-005), 30 μL/min, 120 s injection, 150 s dissociation; regeneration 10 mM glycine 3.0 or 2.5; 1:1 kinetic model; three single runs; details: both partners purified
T2 construct: programmed cell death protein 1 (PD-1), human, recombinant, bought from Abcam; the results speak of the immobilised ectodomain; also called hPD-1; CD279; source: bought: Abcam
T2 sequence (Q15116 25-170): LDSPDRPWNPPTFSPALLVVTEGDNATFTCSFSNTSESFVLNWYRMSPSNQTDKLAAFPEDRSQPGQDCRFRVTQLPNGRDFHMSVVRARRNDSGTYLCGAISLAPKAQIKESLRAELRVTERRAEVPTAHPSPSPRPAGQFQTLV

[3] = biological target: T3, Recombinant human PD-1 protein (programmed cell death protein 1) (human, UniProt Q15116 25-170); assay: SPR; Biacore X100, 25 °C; PD-1 immobilised on a CM5 chip by amine coupling (target 5000 RU); peptides as analytes in HBS-EP (2–64 μM WANG-003, 1–16 μM WANG-004, 1.5625–100 μM WANG-005, 62.5–1000 μM WANG006, 3.125–100 μM WANG007), 120 s injection and 150 s dissociation; 30 μL/min; 1:1 kinetic model; details: both partners purified
T3 construct: Programmed cell death protein 1 (PD-1), human, recombinant, bought from Abcam; the results call the immobilised protein an ectodomain; No catalogue number, limits or tags are printed; The UniProt ID Q15116 is printed for the docking model, not for the bought protein; also called CD279; purified active PD-1; source: bought: Abcam
T3 sequence (Q15116 25-170): as above

T1 sequence (Q15116 25-170 limits assumed): as the sequence (Q15116 25-170) above

binding affinity to PD-1 (in words) [1]: moderate affinity
Molecule: KRWWR-NH2 (C-terminus assumed) [WANG-003, KRWWR-NH2]

binding affinity to PD-1 (in words) [1]: did not show binding affinities
Molecule: YVAM-NH2 [WANG-006]

binding affinity to PD-1 (in words) [1]: moderate affinity | binding affinity to PD-1 (in words) ([1]; listed as FRWWR-NH2): moderate binding affinity
Molecule: FRWWR-NH2 (C-terminus assumed) [WANG-004, FRWWR-NH2]

binding affinity to PD-1 (in words) [1]: moderate affinity
Molecule: RRWQWR-NH2 [WANG-005, RRWQWR-NH2]

binding affinity to PD-1 (in words) [1]: did not show binding affinities
Molecule: YVAE-NH2 [WANG-007]

B1: WANG-005 (RRWQWR-NH2) (peptide)
chain: RRWQWR-NH2
kon [2]: 658 M⁻¹ s⁻¹ and 436 M⁻¹ s⁻¹ and 494 M⁻¹ s⁻¹

B2: WANG-003 (KRWWR-NH2) (peptide)
peptide: KRWWR-NH2
notes: in-house synthetic peptide; source: synthetic peptide
Kd [2]: 2100 nM and 4610 nM and 3350 nM | koff [2]: 0.00258 s⁻¹ and 0.00446 s⁻¹ and 0.00365 s⁻¹ | kon [2]: 1230 M⁻¹ s⁻¹ and 967 M⁻¹ s⁻¹ and 1090 M⁻¹ s⁻¹

B3: WANG-004 (FRWWR-NH2) (peptide)
peptide: FRWWR-NH2
notes: as for B2
Kd [2]: 1380 nM and 2070 nM and 1450 nM | koff [2]: 0.00383 s⁻¹ and 0.00438 s⁻¹ and 0.00401 s⁻¹ | kon [2]: 2770 M⁻¹ s⁻¹ and 2120 M⁻¹ s⁻¹ and 2760 M⁻¹ s⁻¹

B4: WANG-003 (peptide)
peptide: KRWWR-NH2
notes: in-house synthetic peptide; also called KRWWR-NH2; KRWWR; source: synthetic peptide (solid phase, HPLC purified)
Kd [3]: 3350 ± 1030 nM

B5: WANG-004 (peptide)
peptide: FRWWR-NH2
notes: in-house synthetic peptide; also called FRWWR-NH2; FRWWR; source: synthetic peptide (solid phase, HPLC purified)
Kd [3]: 1630 ± 309 nM
